# Test results published in IntAct's records for PubMed 31515488.
# B1: STAM-binding protein (Homo sapiens), O95630 (parent)
# chain: MSDHGDVSLPPEDRVRALSQLGSAVEVNEDIPPRRYFRSGVEIIRMASIYSEEGNIEHAFILYNKYITLFIEKLPKHRDYKSAVIPEKKDTVKKLKEIAFPKAEELKAELLKRYTKEYTEYNEEKKKEAEELARNMAIQQELEKEKQRVAQQKQQQLEQEQFHAFEEMIRNQELEKERLKIVQEFGKVDPGLGGPLVPDLEKPSLDVFPTLTVSSIQPSDCHTTVRPAKPPVVDRSLKPGALSNSESIPTIDGLRHVVVPGRLCPQFLQLASANTARGVETCGILCGKLMRNEFTITHVLIPKQSAGSDYCNTENEEELFLIQDQQGLITLGWIHTHPTQTAFLSSVDLHTHCSYQMMLPESVAIVCSPKFQETGFFKLTDHGLEEISSCRQKGFHPHSKDPPLFCSCSHVTVVDRAVTITDLR
# partner: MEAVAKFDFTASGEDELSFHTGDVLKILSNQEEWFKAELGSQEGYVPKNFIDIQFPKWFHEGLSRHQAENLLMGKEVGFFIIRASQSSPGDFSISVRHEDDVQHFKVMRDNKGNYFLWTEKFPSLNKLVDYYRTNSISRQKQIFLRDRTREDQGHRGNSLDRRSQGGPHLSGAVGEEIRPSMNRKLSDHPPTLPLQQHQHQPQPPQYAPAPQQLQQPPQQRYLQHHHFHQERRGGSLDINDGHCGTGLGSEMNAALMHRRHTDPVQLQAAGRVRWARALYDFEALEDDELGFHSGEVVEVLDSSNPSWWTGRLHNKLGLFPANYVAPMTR
# B2: Fructose-1,6-bisphosphatase isozyme 2 (Homo sapiens), O00757 (parent)
# chain: MTDRSPFETDMLTLTRYVMEKGRQAKGTGELTQLLNSMLTAIKAISSAVRKAGLAHLYGIAGSVNVTGDEVKKLDVLSNSLVINMVQSSYSTCVLVSEENKDAIITAKEKRGKYVVCFDPLDGSSNIDCLASIGTIFAIYRKTSEDEPSEKDALQCGRNIVAAGYALYGSATLVALSTGQGVDLFMLDPALGEFVLVEKDVKIKKKGKIYSLNEGYAKYFDAATTEYVQKKKFPEDGSAPYGARYVGSMVADVHRTLVYGGIFLYPANQKSPKGKLRLLYECNPVAYIIEQAGGLATTGTQPVLDVKPEAIHQRVPLILGSPEDVQEYLTCVQKNQAGS
# B3: DNA topoisomerase 3-beta-1 (Homo sapiens), O95985 (parent)
# chain: MKTVLMVAEKPSLAQSIAKILSRGSLSSHKGLNGACSVHEYTGTFAGQPVRFKMTSVCGHVMTLDFLGKYNKWDKVDPAELFSQAPTEKKEANPKLNMVKFLQVEGRGCDYIVLWLDCDKEGENICFEVLDAVLPVMNKAHGGEKTVFRARFSSITDTDICNAMACLGEPDHNEALSVDARQELDLRIGCAFTRFQTKYFQGKYGDLDSSLISFGPCQTPTLGFCVERHDKIQSFKPETYWVLQAKVNTDKDRSLLLDWDRVRVFDREIAQMFLNMTKLEKEAQVEATSRKEKAKQRPLALNTVEMLRVASSSLGMGPQHAMQTAERLYTQGYISYPRTETTHYPENFDLKGSLRQQANHPYWADTVKRLLAEGINRPRKGHDAGDHPPITPMKSATEAELGGDAWRLYEYITRHFIATVSHDCKYLQSTISFRIGPELFTCSGKTVLSPGFTEVMPWQSVPLEESLPTCQRGDAFPVGEVKMLEKQTNPPDYLTEAELITLMEKHGIGTDASIPVHINNICQRNYVTVESGRRLKPTNLGIVLVHGYYKIDAELVLPTIRSAVEKQLNLIAQGKADYRQVLGHTLDVFKRKFHYFVDSIAGMDELMEVSFSPLAATGKPLSRCGKCHRFMKYIQAKPSRLHCSHCDETYTLPQNGTIKLYKELRCPLDDFELVLWSSGSRGKSYPLCPYCYNHPPFRDMKKGMGCNECTHPSCQHSLSMLGIGQCVECESGVLVLDPTSGPKWKVACNKCNVVAHCFENAHRVRVSADTCSVCEAALLDVDFNKAKSPLPGDETQHMGCVFCDPVFQELVELKHAASCHPMHRGGPGRRQGRGRGRARRPPGKPNPRRPKDKMSALAAYFV
# partner: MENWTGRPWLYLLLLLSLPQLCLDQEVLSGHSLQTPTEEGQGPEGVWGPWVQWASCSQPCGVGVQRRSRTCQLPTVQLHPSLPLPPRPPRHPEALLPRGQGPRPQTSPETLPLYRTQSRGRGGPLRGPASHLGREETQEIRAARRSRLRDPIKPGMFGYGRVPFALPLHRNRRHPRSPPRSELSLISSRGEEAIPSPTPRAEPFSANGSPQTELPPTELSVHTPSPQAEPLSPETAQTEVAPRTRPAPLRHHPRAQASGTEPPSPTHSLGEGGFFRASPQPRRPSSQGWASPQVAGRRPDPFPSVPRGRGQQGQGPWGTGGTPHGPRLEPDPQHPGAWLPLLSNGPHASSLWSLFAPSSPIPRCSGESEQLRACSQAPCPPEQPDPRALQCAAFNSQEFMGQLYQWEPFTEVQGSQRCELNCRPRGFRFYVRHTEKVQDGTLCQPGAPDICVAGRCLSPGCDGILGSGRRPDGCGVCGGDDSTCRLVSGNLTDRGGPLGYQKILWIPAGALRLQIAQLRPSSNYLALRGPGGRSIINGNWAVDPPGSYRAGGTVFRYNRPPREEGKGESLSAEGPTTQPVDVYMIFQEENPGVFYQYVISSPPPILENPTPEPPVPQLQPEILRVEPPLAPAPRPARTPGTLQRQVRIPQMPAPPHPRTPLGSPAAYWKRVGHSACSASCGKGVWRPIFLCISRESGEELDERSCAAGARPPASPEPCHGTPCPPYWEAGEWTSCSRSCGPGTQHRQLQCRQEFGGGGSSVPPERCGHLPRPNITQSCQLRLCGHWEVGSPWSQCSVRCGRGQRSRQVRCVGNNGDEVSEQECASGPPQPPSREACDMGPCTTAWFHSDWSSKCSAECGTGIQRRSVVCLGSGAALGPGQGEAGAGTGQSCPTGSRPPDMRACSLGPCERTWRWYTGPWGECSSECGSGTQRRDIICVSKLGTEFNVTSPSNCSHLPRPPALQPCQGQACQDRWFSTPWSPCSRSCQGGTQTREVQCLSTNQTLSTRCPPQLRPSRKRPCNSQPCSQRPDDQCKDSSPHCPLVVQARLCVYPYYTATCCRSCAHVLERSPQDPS
# B4: DNA repair and recombination protein RAD54B (Homo sapiens), Q9Y620 (parent)
# chain: MRRSAAPSQLQGNSFKKPKFIPPGRSNPGLNEEITKLNPDIKLFEGVAINNTFLPSQNDLRICSLNLPSEESTREINNRDNCSGKYCFEAPTLATLDPPHTVHSAPKEVAVSKEQEEKSDSLVKYFSVVWCKPSKKKHKKWEGDAVLIVKGKSFILKNLEGKDIGRGIGYKFKELEKIEEGQTLMICGKEIEVMGVISPDDFSSGRCFQLGGGSTAISHSSQVARKCFSNPFKSVCKPSSKENRQNDFQNCKPRHDPYTPNSLVMPRPDKNHQWVFNKNCFPLVDVVIDPYLVYHLRPHQKEGIIFLYECVMGMRMNGRCGAILADEMGLGKTLQCISLIWTLQCQGPYGGKPVIKKTLIVTPGSLVNNWKKEFQKWLGSERIKIFTVDQDHKVEEFIKSIFYSVLIISYEMLLRSLDQIKNIKFDLLICDEGHRLKNSAIKTTTALISLSCEKRIILTGTPIQNDLQEFFALIDFVNPGILGSLSSYRKIYEEPIILSREPSASEEEKELGERRAAELTCLTGLFILRRTQEIINKYLPPKIENVVFCRPGALQIELYRKLLNSQVVRFCLQGLLENSPHLICIGALKKLCNHPCLLFNSIKEKECSSTCDKNEEKSLYKGLLSVFPADYNPLLFTEKESGKLQVLSKLLAVIHELRPTEKVVLVSNYTQTLNILQEVCKRHGYAYTRLDGQTPISQRQQIVDGFNSQHSSFFIFLLSSKAGGVGLNLIGGSHLILYDIDWNPATDIQAMSRVWRDGQKYPVHIYRLLTTGTIEEKIYQRQISKQGLCGAVVDLTKTSEHIQFSVEELKNLFTLHESSDCVTHDLLDCECTGEEVHTGDSLEKFIVSRDCQLGPHHQKSNSLKPLSMSQLKQWKHFSGDHLNLTDPFLERITENVSFIFQNITTQATGT
# partner: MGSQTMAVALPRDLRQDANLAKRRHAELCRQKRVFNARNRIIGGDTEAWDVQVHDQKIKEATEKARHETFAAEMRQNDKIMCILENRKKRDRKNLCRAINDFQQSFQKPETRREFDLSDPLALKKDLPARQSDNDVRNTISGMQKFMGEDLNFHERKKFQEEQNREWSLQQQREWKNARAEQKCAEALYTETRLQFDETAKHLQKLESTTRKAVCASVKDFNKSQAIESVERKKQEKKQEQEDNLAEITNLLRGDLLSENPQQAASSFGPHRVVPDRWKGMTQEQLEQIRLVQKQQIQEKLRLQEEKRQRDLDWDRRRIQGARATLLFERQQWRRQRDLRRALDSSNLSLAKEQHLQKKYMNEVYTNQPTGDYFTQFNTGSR
# B5: Tuftelin-interacting protein 11 (Homo sapiens), Q9UBB9 (parent)
# chain: MSLSHLYRDGEGRIDDDDDERENFEITDWDLQNEFNPNRQRHWQTKEEATYGVWAERDSDDERPSFGGKRARDYSAPVNFISAGLKKGAAEEAELEDSDDEEKPVKQDDFPKDFGPRKLKTGGNFKPSQKGFAGGTKSFMDFGSWERHTKGIGQKLLQKMGYVPGRGLGKNAQGIINPIEAKQRKGKGAVGAYGSERTTQSMQDFPVVDSEEEAEEEFQKELSQWRKDPSGSKKKPKYSYKTVEELKAKGRISKKLTAPQKELSQVKVIDMTGREQKVYYSYSQISHKHNVPDDGLPLQSQQLPQSGKEAKAPGFALPELEHNLQLLIDLTEQEIIQNDRQLQYERDMVVNLFHELEKMTEVLDHEERVISNLSKVLEMVEECERRMQPDCSNPLTLDECARIFETLQDKYYEEYRMSDRVDLAVAIVYPLMKEYFKEWDPLKDCTYGTEIISKWKSLLENDQLLSHGGQDLSADAFHRLIWEVWMPFVRNIVTQWQPRNCDPMVDFLDSWVHIIPVWILDNILDQLIFPKLQKEVENWNPLTDTVPIHSWIHPWLPLMQARLEPLYSPIRSKLSSALQKWHPSDSSAKLILQPWKDVFTPGSWEAFMVKNIVPKLGMCLGELVINPHQQHMDAFYWVIDWEGMISVSSLVGLLEKHFFPKWLQVLCSWLSNSPNYEEITKWYLGWKSMFSDQVLAHPSVKDKFNEALDIMNRAVSSNVGAYMQPGARENIAYLTHTERRKDFQYEAMQERREAENMAQRGIGVAASSVPMNFKDLIETKAEEHNIVFMPVIGKRHEGKQLYTFGRIVIYIDRGVVFVQGEKTWVPTSLQSLIDMAK
# partner: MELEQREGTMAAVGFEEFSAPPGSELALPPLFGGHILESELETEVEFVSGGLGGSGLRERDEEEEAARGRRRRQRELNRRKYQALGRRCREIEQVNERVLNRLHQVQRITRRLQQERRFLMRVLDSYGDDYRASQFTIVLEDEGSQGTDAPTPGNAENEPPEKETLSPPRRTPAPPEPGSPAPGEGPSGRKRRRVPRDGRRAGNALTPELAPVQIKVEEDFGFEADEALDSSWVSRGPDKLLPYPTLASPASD
# Variants of: B1
# Details: with grap2_human GRAP2, O75791
row,effect of a mutation on the interaction,Variant
1,disrupting interaction strength,Q155H

# Variants of: B2
# Details: with FBP1, P09467
# FBP1, P09467, sequence (P09467 whole entry): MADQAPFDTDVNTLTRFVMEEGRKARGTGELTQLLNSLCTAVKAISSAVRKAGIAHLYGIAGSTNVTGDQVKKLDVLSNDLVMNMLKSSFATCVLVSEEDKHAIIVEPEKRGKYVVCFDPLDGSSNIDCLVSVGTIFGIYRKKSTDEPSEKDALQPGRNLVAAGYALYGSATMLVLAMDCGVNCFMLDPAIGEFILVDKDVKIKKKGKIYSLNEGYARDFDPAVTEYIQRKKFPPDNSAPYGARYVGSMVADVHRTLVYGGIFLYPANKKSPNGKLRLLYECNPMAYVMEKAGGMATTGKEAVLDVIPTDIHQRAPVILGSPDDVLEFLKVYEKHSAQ
row,effect of a mutation on the interaction,Variant
1,with no effect,Y216C

# Variants of: B3
# Details: with atl4_human ADAMTSL4, Q6UY14
row,effect of a mutation on the interaction,Variant
1,disrupting interaction strength,R267W

# Variants of: B4
# Details: with ribc2_human RIBC2, Q9H4K1
row,effect of a mutation on the interaction,Variant
1,with no effect,L30V

# Variants of: B5
# Details: with tfpt_human TFPT
row,effect of a mutation on the interaction,Variant
1,with no effect,S688L
2,with no effect,R8Q
